Molecular target: Pab1 RRM1-RRM2 (Saccharomyces cerevisiae, UniProt P04147 38-203)
Test: EMSA; protein titration up to 5000 nM; EMSA: 1x binding buffer (from 5x: 50 mM Tris-HCl pH 7.5, 750 mM KCl, 0.5 mM EDTA, 0.5 mM DTT) = 10 mM Tris-HCl, 150 mM KCl, 0.1 mM EDTA, 0.1 mM DTT, plus protein buffer (20 mM Tris-HCl pH 7.4, 100 mM KOAc, 2 mM MgOAc, 10% glycerol); 20 ul, 30 C, 30 min; 10% native PAGE, 0.4x TBE, 4 C
Conditions: protein: recombinant; tags: GST (pGEX-4T-1), removed with thrombin; label: Cy5 at both ends (as named); single strand

Pab1 RRM1-RRM2, sequence (P04147 38-203): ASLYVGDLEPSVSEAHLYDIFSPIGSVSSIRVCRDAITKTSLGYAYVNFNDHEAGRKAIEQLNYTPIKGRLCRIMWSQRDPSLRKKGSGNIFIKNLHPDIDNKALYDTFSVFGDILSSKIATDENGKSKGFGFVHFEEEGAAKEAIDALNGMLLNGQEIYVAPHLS

B1: Cy5-Poly(A)20-Cy5 (ssRNA)
RNA: AAAAAAAAAAAAAAAAAAAA
binding result: binds
